Common to all, as to assay: holdup assay
What all share (design): key: below the threshold = too weak to quantify, mostly under pKd 3.1 to 4

Test [1] addresses T1, SHANK3, Q9BYB0.
T1 sequence (Q9BYB0 641-750, limits assumed, looked up): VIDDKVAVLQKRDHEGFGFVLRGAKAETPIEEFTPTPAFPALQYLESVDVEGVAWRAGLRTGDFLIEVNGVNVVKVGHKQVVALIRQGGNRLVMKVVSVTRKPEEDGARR

Test [2] deals with T2, TJP3_1, O95049.
T2 sequence (O95049 6-103, limits assumed, looked up): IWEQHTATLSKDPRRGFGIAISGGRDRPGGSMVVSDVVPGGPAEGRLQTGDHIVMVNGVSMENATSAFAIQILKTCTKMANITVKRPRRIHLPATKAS

The target in test [3] is T3, PDZD4, Q76G19.
T3 sequence (Q76G19 125-224, limits assumed, looked up): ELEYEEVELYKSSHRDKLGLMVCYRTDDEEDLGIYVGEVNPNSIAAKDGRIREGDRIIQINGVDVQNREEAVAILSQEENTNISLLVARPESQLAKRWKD

Test [4] concerns the target PARD3B_3, Q8TEW8.
The target in test [5] is T4, USH1C_2, Q9Y6N9.
T4 sequence (Q9Y6N9 206-303, limits assumed, looked up): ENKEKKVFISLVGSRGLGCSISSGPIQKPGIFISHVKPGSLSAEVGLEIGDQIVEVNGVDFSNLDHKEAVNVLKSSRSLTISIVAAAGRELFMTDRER

In test [6] the target is PDZRN4_2, Q6ZMN7.
The target in test [7] is MAGI3_5, Q5TCQ9.
For test [8], the target named is T5, LNX2_4, Q8N448.
T5 sequence (Q8N448 595-690, limits assumed, looked up): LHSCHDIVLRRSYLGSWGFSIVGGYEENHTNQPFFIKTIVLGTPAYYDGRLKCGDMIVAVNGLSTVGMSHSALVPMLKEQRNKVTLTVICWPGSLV

In test [9] the target is T6, MPDZ_2, O75970.
T6 sequence (O75970 252-347, limits assumed, looked up): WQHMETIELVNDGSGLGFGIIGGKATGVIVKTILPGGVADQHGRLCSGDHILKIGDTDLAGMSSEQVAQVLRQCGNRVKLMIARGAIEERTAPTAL

In test [10] the target is T7, CNKSR1, Q969H4.
T7 sequence (Q969H4 191-295, limits assumed, looked up): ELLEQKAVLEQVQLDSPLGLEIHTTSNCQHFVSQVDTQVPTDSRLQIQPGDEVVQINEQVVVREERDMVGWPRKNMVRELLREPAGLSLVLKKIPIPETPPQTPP

For test [11], the target named is PDLIM4, P50479.
For test [12], the target named is T8, MPDZ_13, O75970.
T8 sequence (O75970 1982-2070, limits assumed, looked up): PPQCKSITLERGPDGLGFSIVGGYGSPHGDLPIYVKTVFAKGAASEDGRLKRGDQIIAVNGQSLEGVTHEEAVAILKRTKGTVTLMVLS

The target of test [13] is SCRIB_4, Q14160.
Test [14] concerns the target T9, USH1C_1, Q9Y6N9.
T9 sequence (Q9Y6N9 82-179, limits assumed, looked up): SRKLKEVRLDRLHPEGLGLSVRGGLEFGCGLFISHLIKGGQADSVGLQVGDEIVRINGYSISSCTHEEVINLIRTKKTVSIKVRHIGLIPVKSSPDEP

The target of test [15] is NHERF4_1, Q86UT5-2.
Test [16] deals with T10, MPDZ_3, O75970.
T10 sequence (O75970 372-473, limits assumed, looked up): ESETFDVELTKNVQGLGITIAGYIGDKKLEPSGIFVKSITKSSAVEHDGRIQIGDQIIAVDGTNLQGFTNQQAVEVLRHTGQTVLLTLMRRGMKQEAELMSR

Test [17] has as its target T11, TJP3_2, O95049.
T11 sequence (O95049 190-282, limits assumed, looked up): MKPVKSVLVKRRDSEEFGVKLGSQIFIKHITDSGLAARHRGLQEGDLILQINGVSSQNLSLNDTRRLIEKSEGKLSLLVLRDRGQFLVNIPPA

Test [18] concerns the target DLG2_1, Q15700.
Test [19] addresses T12, PDZD2_5, O15018.
T12 sequence (O15018 2617-2716, limits assumed, looked up): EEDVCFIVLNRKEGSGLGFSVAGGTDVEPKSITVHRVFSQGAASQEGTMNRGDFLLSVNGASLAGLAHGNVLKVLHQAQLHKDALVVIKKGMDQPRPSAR

Test [20] has as its target T13, NHERF3_2, Q5T2W1.
T13 sequence (Q5T2W1 129-225, limits assumed, looked up): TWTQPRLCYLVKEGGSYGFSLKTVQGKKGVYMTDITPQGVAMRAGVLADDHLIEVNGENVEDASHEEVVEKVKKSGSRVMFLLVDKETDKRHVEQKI

In test [21] the target is T14, GIPC1, O14908.
T14 sequence (O14908 128-223, limits assumed, looked up): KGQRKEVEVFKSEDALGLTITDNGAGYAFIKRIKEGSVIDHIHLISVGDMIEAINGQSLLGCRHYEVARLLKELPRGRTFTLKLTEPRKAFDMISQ

For test [22], the target named is RIMS2, Q9UQ26.
Test [23] concerns the target PARD3B_2, Q8TEW8.
[24] abbreviates: plain residues with an end cap or a label only (N-terminal biotin on a linker: (peg)3).
Setting [25] is: plain residues with an end cap or a label only (N-terminal biotin on a linker: ado-ado).
Where [26] appears, read: modified: phospho on S at position -3 from the C-terminal residue.
Setting [27] is: modified: acetyl on K at position -1 from the C-terminal residue.

In general, pKd refers to the Kd on a negative log10 scale, so that one unit is a factor of ten.

Sequence of PARD3B_3, Q8TEW8 (Q8TEW8 490-594): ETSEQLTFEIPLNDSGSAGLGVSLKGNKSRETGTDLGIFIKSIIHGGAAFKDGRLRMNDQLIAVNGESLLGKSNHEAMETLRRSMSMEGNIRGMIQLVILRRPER
Sequence of NHERF4_1, Q86UT5-2 (Q86UT5 other isoform, or with tags, fused parts or gaps): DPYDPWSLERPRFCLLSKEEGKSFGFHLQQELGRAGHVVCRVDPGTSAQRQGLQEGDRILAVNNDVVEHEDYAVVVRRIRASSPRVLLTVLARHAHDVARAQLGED
Sequence of RIMS2, Q9UQ26 (Q9UQ26 637-758): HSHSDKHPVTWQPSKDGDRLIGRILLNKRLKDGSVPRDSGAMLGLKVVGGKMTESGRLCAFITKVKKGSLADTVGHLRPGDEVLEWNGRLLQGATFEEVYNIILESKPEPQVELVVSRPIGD
Sequence of PARD3B_2, Q8TEW8 (Q8TEW8 376-471): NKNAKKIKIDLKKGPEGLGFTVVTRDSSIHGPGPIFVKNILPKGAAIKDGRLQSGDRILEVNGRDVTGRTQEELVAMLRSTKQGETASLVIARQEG
Sequence of SCRIB_4, Q14160 (Q14160 1095-1204): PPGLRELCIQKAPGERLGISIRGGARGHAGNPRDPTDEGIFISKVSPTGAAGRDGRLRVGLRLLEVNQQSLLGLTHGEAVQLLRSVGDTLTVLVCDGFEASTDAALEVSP
Sequence of PDZRN4_2, Q6ZMN7 (Q6ZMN7 389-498): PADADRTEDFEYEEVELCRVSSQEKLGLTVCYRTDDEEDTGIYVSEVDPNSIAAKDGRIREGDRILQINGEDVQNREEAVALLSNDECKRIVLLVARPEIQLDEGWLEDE
Sequence of PDLIM4, P50479 (P50479 1-83): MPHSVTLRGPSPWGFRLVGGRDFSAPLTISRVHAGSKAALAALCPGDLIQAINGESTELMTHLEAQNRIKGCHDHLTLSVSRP
Sequence of MAGI3_5, Q5TCQ9 (Q5TCQ9 847-941): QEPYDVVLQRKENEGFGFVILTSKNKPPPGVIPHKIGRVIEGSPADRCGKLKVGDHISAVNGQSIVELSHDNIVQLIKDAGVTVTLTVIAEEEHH

B1: SARS-Cov2-3a, P0DTC3 (peptide)
chain: YDEPTTTTSVPL
Consider B1, for which the pKd entry in [1] (setting [24]), in test [2] (setting [24]), in test [3] (setting [24]), in test [4] (setting [24]), in test [5] (setting [24]) and in test [6] (setting [24]) was “below the threshold” in each case. The pKd entry in test [7] (setting [24]), in [8] (setting [24]), in test [9] (setting [24]), in [10] (setting [24]), in test [11] (setting [24]) and in test [12] (setting [24]) was “below the threshold” in each case. The pKd entry in test [13] (setting [24]) is “below the threshold”; in [14] (setting [24]), “below the threshold”; in [15] (setting [24]) it was 4.43; in test [16] (setting [24]) it was “below the threshold”; in test [17] (setting [24]) it was “below the threshold”; in test [18] (setting [24]) it was “below the threshold”. Further, the negative-log Kd (pKd) entry in [19] (setting [24]), in test [20] (setting [24]), in [21] (setting [24]), in test [22] (setting [24]) and in [23] (setting [24]) was “below the threshold” each time.

B2: ITK, Q08881 (peptide)
chain: QLAEIAESGL
In the case of B2, the pKd in [15] (setting [25]) was determined as 3.91.

B3: CTBP1, Q13363 (peptide)
chain: ADRDHASDQL
Turning to B3, the pKd in test [15] (setting [25]) stood at 4.05.

B4: DUSP10, Q9Y6W6 (peptide)
chain: PKLMGVETVV
For B4, in test [15] (setting [25]), the pKd entry is on record as “below the threshold”.

B5: EZH1, Q92800 (peptide)
chain: VGIERETDVL
As for B5, in test [15] (setting [25]), the pKd worked out at 3.8.

B6: APPL1, Q9UKG1 (peptide)
chain: EGGKKRESEA
With B6, in [15] (setting [25]), the pKd result is given as “below the threshold”.

B7: RRBP1, Q9P2E9 (peptide)
chain: GSSSKEGTSV
On to B7, for which the pKd in test [15] (setting [25]) was 3.51.

B8: RPS6KA1_-3P, Q15418 (peptide)
chain: RRVRKLPSTTL
With B8, the pKd entry in test [1] (setting [26]), in [2] (setting [26]), in test [3] (setting [26]), in test [4] (setting [26]), in test [5] (setting [26]) and in test [6] (setting [26]) was “below the threshold” in each case. The pKd result was “below the threshold” in test [7] (setting [26]); “below the threshold” in test [8] (setting [26]); “below the threshold” in test [9] (setting [26]); 3.49 in [10] (setting [26]); 3.63 in [11] (setting [26]); 3.72 in test [12] (setting [26]). For the same molecule, the pKd result was “below the threshold” in test [13] (setting [26]); “below the threshold” in test [14] (setting [26]); “below the threshold” in [15] (setting [26]); “below the threshold” in test [16] (setting [26]); “below the threshold” in [17] (setting [26]); 3.69 in test [18] (setting [26]). For the same molecule, the pKd result in [19] (setting [26]), in test [20] (setting [26]), in test [21] (setting [26]), in [22] (setting [26]) and in test [23] (setting [26]) was “below the threshold” in each case.

B9: ADGRG1, Q9Y653 (peptide)
chain: SSGSTSSSRI
On to B9, for which the pKd entry in test [15] (setting [25]) is “below the threshold”.

B10: GAGE12J, A6NER3 (peptide)
chain: PEEGKKQSQC
In test [15] (setting [25]), B10 showed a pKd of 3.79.

B11: PTEN_Ac, P60484 (peptide)
chain: DEDQHTQITKV
B11: the pKd in test [1] (setting [27]) is 4.04; in [2] (setting [27]) it was “below the threshold”; in [3] (setting [27]) it was “below the threshold”; in test [4] (setting [27]) it was “below the threshold”; in [5] (setting [27]), “below the threshold”; in test [6] (setting [27]), “below the threshold”. Besides, the pKd was 3.97 in [7] (setting [27]); “below the threshold” in test [8] (setting [27]); 4.3 in test [9] (setting [27]); 3.66 in test [10] (setting [27]); “below the threshold” in test [11] (setting [27]); 4.29 in test [12] (setting [27]). The pKd result in test [13] (setting [27]) was “below the threshold”; in test [14] (setting [27]), “below the threshold”; in test [15] (setting [27]), “below the threshold”; in test [16] (setting [27]), “below the threshold”; in test [17] (setting [27]), “below the threshold”; in [18] (setting [27]), 3.98. Besides, the pKd entry was “below the threshold” in test [19] (setting [27]); 3.61 in test [20] (setting [27]); “below the threshold” in test [21] (setting [27]); “below the threshold” in [22] (setting [27]); “below the threshold” in test [23] (setting [27]).
